The record followed here is article PMC13056932 (Nature Communications, 2026).

The target of data set [1] is large tegument protein VP1/2 (ORF22) (Varicella-zoster virus (parental Oka strain)) (UniProt P09278). As to the kind of experiment: cryo-EM structure.
The data set “cryo-EM structure” concerns the molecule itself. Kind of data set: cryo-EM structure.

A word on the stoichiometry N: it is the number of molecules, sites or subunits per partner or assembly. As for “large tegument protein VP1/2 (ORF22), P09278 1-2763”, the stoichiometry N in data set [1] came out at 2.

B1: capsid triplex protein 2 (TRX2; ORF41) (natural protein, UniProt P09291 1-316, looked up)
chain: MAMPFEIEVLLPGELSPAETSALQKCEGKIITFSTLRHRASLVDIALSSYYINGAPPDTLSLLEAYRMRFAAVITRVIPGKLLAHAIGVGTPTPGLFIQNTSPVDLCNGDYICLLPPVFGSADSIRLDSVGLEIVFPLTIPQTLMREIIAKVVARAVERTAAGAQILPHEVLRGADVICYNGRRYELETNLQHRDGSDAAIRTLVLNLMFSINEGCLLLLALIPTLLVQGAHDGYVNLLIQTANCVRETGQLINIPPMPRIQDGHRRFPIYETISSWISTSSRLGDTLGTRAILRVCVFDGPSTVHPGDRTAVIQV
As for B1, the “stoichiometry N” value in “cryo-EM structure” was determined as 2.

B2: capsid vertex-specific component 2 (CVC2; ORF34) (natural protein, UniProt P09287 1-579, looked up)
chain: MTARYGFGSISFPNKCGIFLSTTKNFIAPNFPIHYWTAPAFELRGRMNPDLEKNTLTLKNAAAVAALDNLRGETITLPTEIDRRLKPLEEQLTRMAKVLDSLETAAAEAEEADAQSEECTRTEIIRNESIHPEVQIAKNDAPLQYDTNFQVDFITLVYLGRARGNNSPGIVFGPWYRTLQERLVLDRPVAARGVDCKDGRISRTFMNTTVTCLQSAGRMYVGDRAYSAFECAVLCLYLMYRTSNSVHEPQVSSFGNLIEHLPEYTETFVNYMTTHENKNSYQFCYDRLPRDQFHARGGRYDQGALTSHSVMDALIRLQVLPPAPGQFNPGVNDIIDRNHTAYVDKIQQAAAAYLERAQNVFLMEDQTLLRLTIDTITALLLLRRLLWNGNVYGDKLKNNFQLGLIVSEATGTPTNNVILRGATGFDGKFKSGNNNFQFLCERYIAPLYTLNRTTELTEMFPGLVALCLDAHTQLSRGSLGRTVIDISSGQYQDRLISLIALELEHRRQNVTSLPIAAVVSIHDSVMLQYERGLGMLMHQPRVRAALEESRRLAQFNVNSDYDLLYFVCLGVIPQFASTP
Regarding B2, the “stoichiometry N” value in “cryo-EM structure” is 2.
